84 variants from the RNAGym collection of RNA variant scans (doi:10.1021/acssynbio.7b00057) can be followed below.

The chains are these.
B1: Pistol ribozyme (parent)
chain: GGGUCGUUGUUCCAUAAUCGCGUGGAUAUGGCACGCAAGUUUCUACCGGGCACCGUAAAUGUCCGACUGGAGCCGUUCGGGCGGCUAUAAACAGACCUCAGGCCCGAAGCGUGGCGGCACCUGCCGCCGGUGGUAAAAAAGAUCGGAAGAGCACACGUCU

In the data set the parent is B1. As to the kind of experiment: aptazyme ON/OFF ratio, guanine; higher = stronger switching; co-transcriptional cleavage with and without guanine.
Take U7C U8G G9U U11A C12G C13G: the “aptazyme ON/OFF ratio” value is 1.09.
For the variant U7A U8G G9C U10G U11A C12A, the “aptazyme ON/OFF ratio” value was found to be 1.42.
Turning to G9C U10G U11C C12U C13U, the “aptazyme ON/OFF ratio” value was found to be 1.24.
As to U7C G9C U10C U11G C13A, the “aptazyme ON/OFF ratio” value came to 1.12.
In the case of U7C U8A U10C U11C C12U C13A, the “aptazyme ON/OFF ratio” value stood at 1.06.
U7G U8C G9A U10G U11A C12A C13A: the “aptazyme ON/OFF ratio” value was determined as 1.04.
The result for U7A U8G G9U U10A U11C C13G reads 1.09.
Regarding U7A U8A G9U U10A U11A C12G C13U, the “aptazyme ON/OFF ratio” value is 1.04.
On to U7G U8C G9C U10A C12G C13A, for which the “aptazyme ON/OFF ratio” value was found to be 1.06.
As for U8G G9U U10A U11A C13U, the figure is 1.25; as for U7G U8C G9U U11C C12A, 1.31; as for U7G U8C G9C U11C C13A, 1.46.
As for U7G G9U U10C U11G, the “aptazyme ON/OFF ratio” value worked out at 2.9.
U7A U10C U11C C12U: the “aptazyme ON/OFF ratio” value came out at 1.04.
In the case of U7G U8A G9C U10C U11C C12A C13A, the “aptazyme ON/OFF ratio” value was 1.05.
As for U8G G9U U10C C12G, the “aptazyme ON/OFF ratio” value is 1.41.
Consider U8G G9U C12G C13G, for which the “aptazyme ON/OFF ratio” value was determined as 1.27.
Turning to U7A U8G U10A U11C C12A, the “aptazyme ON/OFF ratio” value amounted to 1.49.
U7G U8A G9C U11G C13U: the “aptazyme ON/OFF ratio” value is 1.04.
Take U7C U8A G9A U10A U11G C12U C13G: the “aptazyme ON/OFF ratio” value is 1.17.
With U7A U8A G9A U11A C12G, the “aptazyme ON/OFF ratio” value came to 1.24.
For U8A G9C U10A U11A C12A C13A, the “aptazyme ON/OFF ratio” value was determined as 1.21.
The result for U7G U8G G9U C12U C13A reads 1.23.
In the case of U7C G9U U10G U11G C13U, the “aptazyme ON/OFF ratio” value came out at 1.1.
For U7A U8C G9A U10G U11C C13G, the “aptazyme ON/OFF ratio” value was 1.06.
For U7G U8A G9A U10G U11G C12G, the “aptazyme ON/OFF ratio” value is 1.24.
As to U7C U8C G9C U10A U11G C13U, the “aptazyme ON/OFF ratio” value came to 1.17.
Regarding U7C U8G G9A U10C, the “aptazyme ON/OFF ratio” value amounted to 3.63.
Turning to U7G G9A U11A C12U, the “aptazyme ON/OFF ratio” value was determined as 1.41.
For the variant U8G U10G U11G C13A, the “aptazyme ON/OFF ratio” value was 1.21.
With U7A U8G G9A U10A U11A C12U, the “aptazyme ON/OFF ratio” value was 1.31.
U8A G9A U10C U11A C12A C13G: the “aptazyme ON/OFF ratio” value is 1.24.
Turning to U7C G9U U10G U11G C12G C13G, the “aptazyme ON/OFF ratio” value is 1.12.
Turning to U8C G9A U10C C12U C13G, the “aptazyme ON/OFF ratio” value was determined as 1.26.
For U7G U8G G9C U10A U11C C12G C13G, the “aptazyme ON/OFF ratio” value came out at 1.05.
For U7C U8G G9U U10A U11C C12G C13A, the “aptazyme ON/OFF ratio” value is 1.16.
For the variant U7C U8A U10A U11A C12U C13U, the “aptazyme ON/OFF ratio” value came out at 1.13.
As to U7G U8C U10A U11A C12A C13A, the “aptazyme ON/OFF ratio” value stood at 1.13.
As to U7G U8C U10C U11A C12U C13G, the “aptazyme ON/OFF ratio” value is 1.08.
In the case of U7G G9U U10A U11G C12G C13G, the “aptazyme ON/OFF ratio” value was 1.14.
As for U8G G9C U10A U11A C12U C13G, the figure is 1.1; as for U8C U10G U11C C12G C13U, 1.32; as for U7C G9A U10G C12A C13A, 1.15.
The result for U7G U8A G9C U11A C12A C13U reads 1.04.
With U8G U10A U11G C12U C13U, the “aptazyme ON/OFF ratio” value came out at 1.12.
U7C U8C C12U C13A: the “aptazyme ON/OFF ratio” value turned out to be 1.41.
As for U7G U8A G9C U11A C13A, the “aptazyme ON/OFF ratio” value is 1.05.
Turning to U7C G9C C13U, the “aptazyme ON/OFF ratio” value amounted to 1.01.
As to U7G G9U U11C C12U C13U, the “aptazyme ON/OFF ratio” value is 1.31.
On to U7C U8A U10G C13U, for which the “aptazyme ON/OFF ratio” value was found to be 1.28.
As for U7G U8C G9A U10G U11C C12G C13A, the “aptazyme ON/OFF ratio” value stood at 1.14.
Consider U7A U8A G9C U10A C12U C13A, for which the “aptazyme ON/OFF ratio” value amounted to 1.09.
As for U8G G9C U10A C12A, the figure is 1.23; as for U7A U8G U11G C12G, 1.36; as for U7G U8A U10A C12U C13G, 1.28.
As for U7A U8C G9U U10C C12U C13U, the “aptazyme ON/OFF ratio” value is 1.16.
Turning to U7G U8A G9A U10C C13U, the “aptazyme ON/OFF ratio” value turned out to be 1.13.
As for U7C U8A G9A U10C U11G C13A, the figure is 1.15.
In the case of U8C G9C U10A U11C C13A, the “aptazyme ON/OFF ratio” value came out at 1.23.
For U7G U8C G9A U10C U11C C12A C13G, the “aptazyme ON/OFF ratio” value worked out at 1.28.
Take U7G G9U U10G C12U: the “aptazyme ON/OFF ratio” value worked out at 1.55.
Consider U8C G9C U10A U11G C13A, for which the “aptazyme ON/OFF ratio” value stood at 1.2.
As for U8C G9U U10C U11G, the figure is 1.33; as for U7A U8A G9C U10C U11C C12U C13G, 1.02; as for U7G U8G G9A U10G U11G C12G, 1.3.
The result for U8G U10C U11A C12A C13U reads 1.24.
For the variant U7G U8G G9U U10C U11A C12A C13U, the “aptazyme ON/OFF ratio” value turned out to be 1.33.
On to U8C G9U C13A, for which the “aptazyme ON/OFF ratio” value is 1.08.
As for U7A U8G U10G U11C C13U, the figure is 1.3; as for U7A U8A G9C U10A U11G C13U, 1.24.
For the variant U7C G9C U10G U11G C12U, the “aptazyme ON/OFF ratio” value amounted to 1.07.
U7G G9U U10C C12G C13U: the “aptazyme ON/OFF ratio” value came to 1.29.
U7C G9U U10C U11G C12G C13U: the “aptazyme ON/OFF ratio” value is 1.11.
Take U7A U8A G9A U10G C12G C13A: the “aptazyme ON/OFF ratio” value came out at 1.06.
Turning to U7A U8A G9A U10G C12G C13U, the “aptazyme ON/OFF ratio” value worked out at 1.31.
The result for U7A U8C U10A U11C C13U reads 1.02; that for U7C U8G G9A U10C U11G C12A C13A, 1.12.
With U7A G9A U10C U11A C12G C13U, the “aptazyme ON/OFF ratio” value worked out at 1.16.
As for U7C U8G G9C U10A U11A C12A C13A, the figure is 1.13; as for U7C G9A U10C C13G, 1.06; as for U7G U8C G9U U10G U11A C12U C13U, 1.36.
With U7A G9C U10A U11C C12G C13A, the “aptazyme ON/OFF ratio” value came to 1.08.
For U7A U8C G9A U10A C12U C13A, the “aptazyme ON/OFF ratio” value stood at 1.11.
Take U7G U8C G9U U10C U11A C12G C13G: the “aptazyme ON/OFF ratio” value was 1.31.
